How the values were obtained:
RjoADP-GlcPPase = target: T1, RjoADP-GlcPPase (Rhodococcus jostii, UniProt Q0S3Y4); test: Pi release; type: biochemical; settings: read-out: S0.5; no effector; ATP, 10 mM MgCl2, pH 8.0, 37°C
T1 sequence (Q0S3Y4 1-404): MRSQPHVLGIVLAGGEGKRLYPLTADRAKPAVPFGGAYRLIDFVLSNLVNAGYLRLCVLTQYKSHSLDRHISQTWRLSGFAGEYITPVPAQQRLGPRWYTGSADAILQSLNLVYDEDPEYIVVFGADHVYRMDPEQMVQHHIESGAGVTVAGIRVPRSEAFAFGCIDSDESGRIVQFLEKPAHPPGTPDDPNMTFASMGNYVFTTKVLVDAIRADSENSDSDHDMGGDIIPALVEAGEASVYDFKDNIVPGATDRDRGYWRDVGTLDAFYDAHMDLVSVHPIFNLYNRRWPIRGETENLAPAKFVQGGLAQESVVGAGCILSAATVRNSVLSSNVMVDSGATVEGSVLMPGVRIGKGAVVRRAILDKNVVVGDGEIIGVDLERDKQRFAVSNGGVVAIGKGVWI

purified protein [1] = substrate: Nc1ncnc2c1ncn2[C@@H]1O[C@H](COP(=O)(O)OP(=O)(O)OP(=O)(O)O)[C@@H](O)[C@H]1O; test: purified protein; settings: no effector, Glc-1P, 10 mM MgCl2, pH 8.0, 37°C
purified protein [2] = substrate: O=P(O)(O)O[C@H]1O[C@H](CO)[C@@H](O)[C@H](O)[C@H]1O; test: purified protein; settings: no effector, ATP, 10 mM MgCl2, pH 8.0, 37°C

O=P(O)(O)O[C@H]1O[C@H](CO)[C@@H](O)[C@H](O)[C@H]1O [Glc-1P]
Km (RjoADP-GlcPPase): 1800 µM

B1: RfaADP-GlcPPase (Rhodococcoides fascians) (protein)
chain: MRTQPHVLGIVLAGGEGKRLYPMTADRAKPAVPFGGAYRLIDFVLSNLVNAGYLRLCVLTQYKSHSLDRHISQTWRLSGFAGEYITPVPAQQRLGPRWYTGSADAIFQSLNLVYDEDPEYIVVFGADHVYRMDPEQMVQQHIDSGAGVTVAGIRVPRSEAFAFGCIDSDENGKITQFLEKPAQPPGTPDDPDVTYASMGNYVFTTKVLVDAIKADSENSDSDHDMGGDIIPALVEAGVASVYDFNDNVVPGATERDRGYWRDVGTIDAFYDAHMDLVSVHPIFNLYNRRWPIRGSAENLPPAKFVQGGLAQESVVGAGCILSAATVRNSVLSSNVMIDSGATVEGSVLMPGVRIGKGAVVRHAILDKNVVVGDGEIVGVDLERDRERFNVSAGGVVSVGKGVWI
K0.5 (purified protein [1]): 0.58 mM | K0.5 (purified protein [2]): 1.17 ± 0.08 mM | kcat (purified protein [2]): 8.8 s⁻¹
